# Laboratory results taken from patent US5854216A, “Marker for growth hormone-releasing factor receptors” (Universite de Montreal, priority 1996, dated 1998).
# Where two headings read alike, the source gives them in different places. Square brackets hold non-standard residues; d marks the D form. Ends that are not written are not given here. Peptide text beside a SMILES is read from it. * marks the point of attachment. FITC = O=C1OC2(c3ccc(O)cc3Oc3cc(O)ccc32)c2ccc(NC(=S)*)cc21; X1 = O=C(O)c1cc(C(=O)*)ccc1-c1c2ccc(=O)cc-2oc2cc(O)ccc12
# B1: Nα-fluorescein-5-thiocarbamyl!hGRF(1-29)NH2 (peptide)
# peptide: {FITC}-YADAIFTNSYRKVLGQLSARKLLQDIMSR-NH2
# B2: hGRF(1-29)NH2 (ligand)
# peptide: YADAIFTNSYRKVLGQLSARKLLQDIMSR-NH2
# B3: Nα-fluorescein-5-thiocarbamyl!hGRF(1-44)NH2 (peptide)
# peptide: {FITC}-YADAIFTNSYRKVLGQLSARKLLQDIMSRQQGESNQERGARARL-NH2
# Experiments:
# [1] = molecular target: T1, GRF receptor of rat adenopituitary (rat, UniProt Q02644-2); test: displacement of 125I-Tyr10 hGRF(1-44)NH2 from rat anterior pituitary homogenate
# T1 sequence: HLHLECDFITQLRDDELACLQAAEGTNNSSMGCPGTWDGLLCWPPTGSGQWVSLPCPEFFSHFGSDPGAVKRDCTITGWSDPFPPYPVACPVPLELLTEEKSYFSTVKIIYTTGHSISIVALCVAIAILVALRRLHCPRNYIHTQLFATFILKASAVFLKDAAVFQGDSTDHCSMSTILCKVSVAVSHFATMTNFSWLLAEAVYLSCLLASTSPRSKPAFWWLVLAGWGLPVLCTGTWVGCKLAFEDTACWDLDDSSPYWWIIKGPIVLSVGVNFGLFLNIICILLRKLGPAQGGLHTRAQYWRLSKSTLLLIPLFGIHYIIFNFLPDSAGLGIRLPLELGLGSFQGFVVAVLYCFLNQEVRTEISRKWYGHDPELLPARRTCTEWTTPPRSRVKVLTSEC
# [2] = molecular target: T1, GRF receptor of rat adenopituitary
# [3] = molecular target: T1, GRF receptor of rat adenopituitary; remark: listed apart in the source
# [4] = molecular target: T2, GRF receptor (adenylate cyclase activity in rat adenopituitary) (Rattus norvegicus, UniProt Q02644); test: Adenylate cyclase assay on anterior pituitary homogenates (cAMP by HPLC); assay type: biochemical; conditions: for IC50: Table 12, 50% of maximal cAMP accumulation induced by 1 μM hGRF(1-29)NH2, mean±SD of 2 or mean±SE of 3 to 6 experiments, 10 for hGRF(1-29)NH2
# T2 construct: from tissue; host or cells: rat anterior pituitary homogenate
# T2 sequence (Q02644 23-423 isoform Q02644-2 limits assumed): T1 sequence
# Description: The adenylate cyclase activity Nε-CF-[Lys^31 ]hGRF was performed on anterior pituitary homogenates as previously described (Lefrangois L. and Gaudreau P., J. Chromatogr., 1993, 619:116-120). Briefly, anterior pituitaries (pit.) were dissected out, rinsed and homogenized for 8 sec with a Micro Ultrasonic Cell Disrupter™, in ice-cold 20 mM Tris-HCl buffer (pH 7.5) containing 2 mM MgCl2 and 250 mM sucrose (1 pit./0.5 ml).
# Samples of anterior pituitary homogenates (30-40 μg protein) were incubated in 1.5 ml Eppendorf™ tubes with 30 mM Tris-HCl, 5 mM MgCl2, 0.5 mM EGTA, containing 0.5 mM ATP, 1 mM IBMX, 10 μM GTP and an ATP regenerating system consisting of 2 mM creatine phosphate, 0.1 mg/ml creatine kinase and, 0.1 mg/ml myokinase in a final volume of 120 μl. Incubations were initiated by adding 20 μl of the homogenate to the reaction mixture which had previously been equilibrated at 37° C. for 2 min. The reactions were carried out for 8 min at 37° C. and stopped by heating the samples in boiling water for 4 min. Samples were centrifuged (12000 g, 5 min, 4° C.) and supernatants were filtered through 0.45 μm Millex HV4 ™ filters and transferred to autosampler vials for HPLC quantification of cAMP.
# [5] = molecular target: T3, GRF receptors ([^125 I-Tyr^10 ]hGRF(1-44)NH2 binding sites in rat adenopituitary) (Rattus norvegicus, UniProt Q02644); test: Competitive binding assay with [^125 I-Tyr^10 ]hGRF(1-44)NH2 on anterior pituitary homogenates; conditions: for IC50: Table 11, mean±SD of 2 or mean±SE of 3 experiments for analogues, mean±SE of 11 for hGRF(1-29)NH2
# T3 construct: from tissue; host or cells: rat anterior pituitary homogenate
# T3 sequence (Q02644 23-423 isoform Q02644-2 limits assumed): T1 sequence
# Outline: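 Rat anterior pituitary homogenates (70 to 75 μg protein) in 50 mM Tris-HCl pH 7.4 with 5 mM EDTA, 5 mM MgCl2, 0.42% BSA were competed with 35-50 pM radioligand against analogues at 0-1000 nM. Non-specific binding defined with 2.4 μM rGRF(1-29)NH2; 60 min at 23° C, stopped by centrifugation, pellet gamma-counted. hGRF(1-29)NH2 run in each experiment as reference.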
# [6] = Solubility in water or buffer; assay type: physicochemical; conditions: distilled water or aqueous buffer
# [7] = Storage stability / shelf life; assay type: physicochemical
# [8] = Toxicity (statement only)
# [9] = molecular target: T1, GRF receptor of rat adenopituitary; test: displacement of 125I-Tyr10 hGRF(1-44)NH2 from rat anterior pituitary homogenate; remark: listed apart in the source
# Description: (§1) The binding of [^125I-Tyr^10]hGRF(1–44)NH_2 was performed on anterior pituitary homogenates as previously described (Gaudreau P. et al., J. Biol. Chem., 1992, 35:1864–1869). Briefly, anterior pituitaries (pit.) were dissected out, rinsed and homogenized for 8 sec with a Micro Ultrasonic Cell Disrupter™, in ice-cold 50 mM Tris-HCl buffer, pH 7.4, containing 5 mM MgCl_2 and 5 mM EDTA (1 pit./0.5 ml). These homogenates were used immediately. Competition studies were performed using 35–50 pM [^125I-Tyr^10]hGRF(1–44)NH_2 as radio-ligand, 50 µl of homogenate (70 to 75 µg of protein), and increasing concentrations of Nε-CF-[Lys^31]hGRF or other GRF analogues (0–1000 nM) or with 2.4 µM rGRF(1–29)NH_2 for determination of non-specific binding, in a total volume of 300 µl of Tris-HCl buffer, pH 7.4, containing 5 mM EDTA, 5 mM MgCl_2 and 0.42% BSA. Incubations were carried out at 23° C. for 60 min and stopped by centrifugation (12,000 g, 5 min, at 4° C.). The radioactivity content in the pellet was measured by gamma counting. The affinity of hGRF(1–29)NH_2 was tested in each experiment to assess the validity of the assay and determine the relative affinity of the analogues.
# 75 to 97% of their initial concentration are recovered at the end of the binding assay (Gaudreau P. et al., J. Biol. Chem., 1992, 35:1864–1869). The Ligand computerized program was used to analyse competition curves of all the GRF analogues reported in Tables 4, 7 and 11, and to determine their IC$50$ and Hill coefficient. The Hill values indicate that all these peptides bind to the high and low affinity GRF binding sites found in the anterior pituitary.
# [10] = molecular target: T1, GRF receptor of rat adenopituitary; test: as above; remark: listed apart in the source
# Description: as §1
# 75 to 97% of their initial concentration are recovered at the end of the binding assay (Gaudreau P. et al., J. Biol. Chem., 1992, 35:1864–1869). […]
molecule,measurement,setting,value
"Ala^8,Ala^15,Ala^22 ! hGRF(1-29)NH2 (from UniProt P01286) (peptide)",Relative affinity (%) against hGRF(1-29)NH2,[1],960%
same,adenylate cyclase activity: Relative activity (%) against hGRF(1-29)NH2,[2],1410%
"D-Ans^8,D-Leu^22 ! hGRF(1-29)NH2 (from UniProt P01286) (peptide)",Relative affinity (%) against hGRF(1-29)NH2,[1],49%
same,adenylate cyclase activity: Relative activity (%) against hGRF(1-29)NH2,[2],55%
Lys^22 ! hGRF(1-29)NH2 (from UniProt P01286) (peptide),Relative affinity (%) against hGRF(1-29)NH2,[1],1040%
same,adenylate cyclase activity: EC50 of cAMP accumulation (column head prints IC50),[2],2.63 nM
same,adenylate cyclase activity: Relative activity (%) against hGRF(1-29)NH2,[2],1400%
"Ala^8,Ala^9,Ala^15,Ala^22 ! hGRF(1-29)NH2 (from UniProt P01286) (peptide)",Relative affinity (%) against hGRF(1-29)NH2,[1],774%
same,adenylate cyclase activity: EC50 of cAMP accumulation (column head prints IC50),[2],2.88 nM
same,adenylate cyclase activity: Relative activity (%) against hGRF(1-29)NH2,[2],1270%
"D-Ala^2,D-Tyr^10,D-Ala^15 ! hGRF(1-29)NH2 (from UniProt P01286) (peptide)",Relative affinity (%) against hGRF(1-29)NH2,[1],18%
same,adenylate cyclase activity: Relative activity (%) against hGRF(1-29)NH2,[2],21%
Nε-5-carboxyfluoresceinyl-Lys^31 !hGRF(1-44)NH2 (from UniProt P01286) (peptide),adenylate cyclase activity: EC50 of cAMP accumulation (column head prints IC50),[3],67 nM
same,adenylate cyclase activity: Relative activity (%) against hGRF(1-29)NH2,[3],55%
same,IC50,[1],3.65 nM
same,Relative affinity (%) against hGRF(1-29)NH2,[1],73%
"D-Ala^2,D-Tyr^10,D-Ala^15,D-Lys^21 ! hGRF(1-29)NH2 (from UniProt P01286) (peptide)",Relative affinity (%) against hGRF(1-29)NH2,[1],8%
same,adenylate cyclase activity: Relative activity (%) against hGRF(1-29)NH2,[2],27%
"CC[C@H](C)[C@H](NC(=O)[C@H](C)NC(=O)[C@H](CC(=O)O)NC(=O)[C@@H](C)NC(=O)[C@@H](N)Cc1ccc(O)cc1)C(=O)N[C@@H](Cc1ccccc1)C(=O)N[C@H](C(=O)N[C@@H](CC(N)=O)C(=O)N[C@@H](CO)C(=O)N[C@H](Cc1ccc(O)cc1)C(=O)N[C@@H](CCCNC(=N)N)C(=O)N[C@@H](CCCCN)C(=O)N[C@H](C(=O)N[C@@H](CC(C)C)C(=O)N[C@H](C)C(=O)N[C@@H](CCC(N)=O)C(=O)N[C@@H](CC(C)C)C(=O)N[C@@H](CO)C(=O)N[C@@H](C)C(=O)N[C@@H](CCCNC(=N)N)C(=O)N[C@H](CCCCN)C(=O)N[C@@H](CC(C)C)C(=O)N[C@@H](CC(C)C)C(=O)N[C@@H](CCC(N)=O)C(=O)N[C@@H](CC(=O)O)C(=O)N[C@H](C(=O)N[C@@H](CCSC)C(=O)N[C@@H](CO)C(=O)N[C@@H](CCCNC(=N)N)C(N)=O)[C@@H](C)CC)C(C)C)[C@@H](C)O [D-Ala^2, D-Tyr^10, D-Ala^15, D-Lys^21] (H-Y[dA]DAIFTNS[dY]RKVL[dA]QLSAR[dK]LLQDIMSR-NH2)",IC50,[4],136 ± 50 nM
same,IC50,[5],31.6 ± 11.7 nM
"YADAIFTASYRKVLAQLSARKALQDIMSR-NH2 [Ala^8, Ala^15, Ala^22]",IC50,[4],2.6 ± 0.7 nM
same,IC50,[5],0.25 ± 0.07 nM
"CC[C@H](C)[C@H](NC(=O)[C@H](C)NC(=O)[C@H](CC(=O)O)NC(=O)[C@@H](C)NC(=O)[C@@H](N)Cc1ccc(O)cc1)C(=O)N[C@@H](Cc1ccccc1)C(=O)N[C@H](C(=O)N[C@@H](CC(N)=O)C(=O)N[C@@H](CO)C(=O)N[C@H](Cc1ccc(O)cc1)C(=O)N[C@@H](CCCNC(=N)N)C(=O)N[C@@H](CCCCN)C(=O)N[C@H](C(=O)N[C@@H](CC(C)C)C(=O)N[C@H](C)C(=O)N[C@@H](CCC(N)=O)C(=O)N[C@@H](CC(C)C)C(=O)N[C@@H](CO)C(=O)N[C@@H](C)C(=O)N[C@@H](CCCNC(=N)N)C(=O)N[C@@H](CCCCN)C(=O)N[C@@H](CC(C)C)C(=O)N[C@@H](CC(C)C)C(=O)N[C@@H](CCC(N)=O)C(=O)N[C@@H](CC(=O)O)C(=O)N[C@H](C(=O)N[C@@H](CCSC)C(=O)N[C@@H](CO)C(=O)N[C@@H](CCCNC(=N)N)C(N)=O)[C@@H](C)CC)C(C)C)[C@@H](C)O [D-Ala^2, D-Tyr^10, D-Ala^15] (H-Y[dA]DAIFTNS[dY]RKVL[dA]QLSARKLLQDIMSR-NH2)",IC50,[4],176 ± 87 nM
same,IC50,[5],13.1 ± 0.9 nM
H-YADAIFTNSYRKVLGQLSARKLLQDIMSRQK(X1)GESNQERGARARL-NH2 [Nε-5-carboxyfluoresceinyl-[Lys^31]hGRF(1-44)NH2],solubility,[6],freely soluble
same,shelf life,[7],at least one year
same,stability,[7]; protected from light and maintained at 4° C.,stable
same,agonist character at the GRF receptor,[4],full GRF receptor agonist
same,Relative activity,"[4]; Table 5, ratio EC50 of hGRF(1-29)NH2 /EC50 analogue",55 ± 36%
same,toxicity,[8],100% non-toxic
same,affinity for adenopituitary GRF receptors (in words),[5],high affinity
same,Hill coef.,[5]; Table 4,0.55 ± 0.03
same,Relative affinity,"[5]; Table 4, ratio IC50 of hGRF(1-29)NH2 /IC50 analogue",73 ± 27%
B1,IC50,[9],14 nM
same,Relative affinity (%) against hGRF(1-29)NH2,[9],19%
B2,adenylate cyclase activity: EC50 of cAMP accumulation (column head prints IC50),[3],36.7 nM
same,adenylate cyclase activity: Relative activity (%),[3],100%
same,IC50,[10],2.4 nM
same,Relative affinity (%) against hGRF(1-29)NH2,[9],100%
B3,Relative affinity (%) against hGRF(1-29)NH2,[9],19%
